Measurements from the supplement of paper PMC5998384.

Experiments:
HeLa Kyoto [1] = assay: thermal stability score vs G1/S (z-score of summed log2 fold changes over temperatures); higher = more thermally stable than in G1/S
HeLa Kyoto [2] = assay: solubility in G1/S (NP-40 vs SDS abundance) (log2 ratio); higher = more soluble; settings: cell cycle stage: G1/S
HeLa Kyoto [3] = assay: melting temperature (median over replicates), in situ; higher = more thermally stable
HeLa Kyoto [4] = assay: solubility change mitosis vs G1/S (difference of NP-40 vs SDS log2 ratios) (log2 ratio difference); higher = more soluble in mitosis
[5] = cell cycle stage: early G1 (4.5 h after nocodazole release)
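Throughout, for melting temperature (median over replicates), in situ: HeLa Kyoto cells synchronized by double thymidine or nocodazole block, proteins quantified by TMT10plex mass spectrometry, three independent biological replicates.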
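Throughout, for solubility change mitosis vs G1/S (difference of NP-40 vs SDS log2 ratios): synchronized HeLa Kyoto cells (double thymidine block for G1/S, nocodazole release for mitosis), protein amounts in NP-40 versus SDS lysates quantified by mass spectrometry, three biological replicates.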
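Throughout, for solubility in G1/S (NP-40 vs SDS abundance): HeLa Kyoto cells arrested at G1/S by double thymidine block, proteins quantified by TMT10plex mass spectrometry in mild NP-40 versus SDS extracts, three biological replicates.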
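Throughout, for thermal stability score vs G1/S (z-score of summed log2 fold changes over temperatures): synchronized HeLa Kyoto cells, proteins quantified by TMT10plex mass spectrometry, three biological replicates, mitosis taken 0.5 h after nocodazole release, G1/S directly after double thymidine block.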

Sequence	thermal stability score (HeLa Kyoto [1]; [5])	thermal stability score (HeLa Kyoto [1]; cell cycle stage: mitosis)	solubility in G1/S (log2) (HeLa Kyoto [2])	melting temperature (HeLa Kyoto [3]; cell cycle stage: G1/S)	melting temperature (HeLa Kyoto [3]; cell cycle stage: mitosis)	solubility change mitosis (log2) (HeLa Kyoto [4])
MADDLGDEWWENQPTGAGSSPEASDGEGEGDTEVMQQETVPVPVPSEKTKQPKECFLIQPKERKENTTKTRKRRKKKITDVLAKSEPKPGLPEDLQKLMKDYYSSRRLVIELEELNLPDSCFLKANDLTHSLSSYLKEICPKWVKLRKNHSEKKSVLMLIICSSAVRALELIRSMTAFRGDGKVIKLFAKHIKVQAQVKLLEKRVVHLGVGTPGRIKELVKQGGLNLSPLKFLVFDWNWRDQKLRRMMDIPEIRKEVFELLEMGVLSLCKSESLKLGLF [CMSS1]	1.03	0.589	-0.211	49.9 °C	50.3 °C	0.103
MADDQGCIEEQGVEDSANEDSVDAKPDRSSFVPSLFSKKKKNVTMRSIKTTRDRVPTYQYNMNFEKLGKCIIINNKNFDKVTGMGVRNGTDKDAEALFKCFRSLGFDVIVYNDCSCAKMQDLLKKASEEDHTNAACFACILLSHGEENVIYGKDGVTPIKDLTAHFRGDRCKTLLEKPKLFFIQACRGTELDDGIQADSGPINDTDANPRYKIPVEADFLFAYSTVPGYYSWRSPGRGSWFVQALCSILEEHGKDLEIMQILTRVNDRVARHFESQSDDPHFHEKKQIPCVVSMLTKELYFSQ [CASP7]	-0.531	-2.43	0.0897	53.9 °C	54.2 °C	0.00474
MADEGKSYSEHDDERVNFPQRKKKGRGPFRWKYGEGNRRSGRGGSGIRSSRLEEDDGDVAMSDAQDGPRVRYNPYTTRPNRRGDTWHDRDRIHVTVRRDRAPPERGGAGTSQDGTSKNWFKITIPYGRKYDKAWLLSMIQSKCSVPFTPIEFHYENTRAQFFVEDASTASALKAVNYKILDRENRRISIIINSSAPPHTILNELKPEQVEQLKLIMSKRYDGSQQALDLKGLRSDPDLVAQNIDVVLNRRSCMAATLRIIEENIPELLSLNLSNNRLYRLDDMSSIVQKAPNLKILNLSGNELKSERELDKIKGLKLEELWLDGNSLCDTFRDQSTYISAIRERFPKLLRLDGHELPPPIAFDVEAPTTLPPCKGSYFGTENLKSLVLHFLQQYYAIYDSGDRQGLLDAYHDGACCSLSIPFIPQNPARSSLAEYFKDSRNVKKLKDPTLRFRLLKHTRLNVVAFLNELPKTQHDVNSFVVDISAQTSTLLCFSVNGVFKEVDGKSRDSLRAFTRTFIAVPASNSGLCIVNDELFVRNASSEEIQRAFAMPAPTPSSSPVPTLSPEQQEMLQAFSTQSGMNLEWSQKCLQDNNWDYTRSAQAFTHLKAKGEIPEVAFMK [NXF1]	1.64	4.14	-0.89	47.3 °C	49.1 °C	0.533
MADGELNVDSLITRLLEVRGCRPGKIVQMTEAEVRGLCIKSREIFLSQPILLELEAPLKICGDIHGQYTDLLRLFEYGGFPPEANYLFLGDYVDRGKQSLETICLLLAYKIKYPENFFLLRGNHECASINRIYGFYDECKRRFNIKLWKTFTDCFNCLPIAAIVDEKIFCCHGGLSPDLQSMEQIRRIMRPTDVPDTGLLCDLLWSDPDKDVQGWGENDRGVSFTFGADVVSKFLNRHDLDLICRAHQVVEDGYEFFAKRQLVTLFSAPNYCGEFDNAGGMMSVDETLMCSFQILKPSEKKAKYQYGGLNSGRPVTPPRTANPPKKR [PPP1CB]	0.423	0.737	-0.161	52.3 °C	52.1 °C	0.0171
MADGQMPFSCHYPSRLRRDPFRDSPLSSRLLDDGFGMDPFPDDLTASWPDWALPRLSSAWPGTLRSGMVPRGPTATARFGVPAEGRTPPPFPGEPWKVCVNVHSFKPEELMVKTKDGYVEVSGKHEEKQQEGGIVSKNFTKKIQLPAEVDPVTVFASLSPEGLLIIEAPQVPPYSTFGESSFNNELPQDSQEVTCT [HSPB8]	-0.244	0.347	0.653	52.3 °C	52.1 °C	0.167
MADGQVAELLLRRLEASDGGLDSAELAAELGMEHQAVVGAVKSLQALGEVIEAELRSTKHWELTAEGEEIAREGSHEARVFRSIPPEGLAQSELMRLPSGKVGFSKAMSNKWIRVDKSAADGPRVFRVVDSMEDEVQRRLQLVRGGQAEKLGEKERSELRKRKLLAEVTLKTYWVSKGSAFSTSISKQETELSPEMISSGSWRDRPFKPYNFLAHGVLPDSGHLHPLLKVRSQFRQIFLEMGFTEMPTDNFIESSFWNFDALFQPQQHPARDQHDTFFLRDPAEALQLPMDYVQRVKRTHSQGGYGSQGYKYNWKLDEARKNLLRTHTTSASARALYRLAQKKPFTPVKYFSIDRVFRNETLDATHLAEFHQIEGVVADHGLTLGHLMGVLREFFTKLGITQLRFKPAYNPYTEPSMEVFSYHQGLKKWVEVGNSGVFRPEMLLPMGLPENVSVIAWGLSLERPTMIKYGINNIRELVGHKVNLQMVYDSPLCRLDAEPRPPPTQEAA [FARSA]	0.422	0.356	0.0439	50.2 °C	50.4 °C	-0.0944
MADKEKKKKESILDLSKYIDKTIRVKFQGGREASGILKGFDPLLNLVLDGTIEYMRDPDDQYKLTEDTRQLGLVVCRGTSVVLICPQDGMEAIPNPFIQQQDA [LSM7]	-1.51	-2.73	0.0991	55.3 °C	53.7 °C	0.227
MADKVLKEKRKLFIRSMGEGTINGLLDELLQTRVLNKEEMEKVKRENATVMDKTRALIDSVIPKGAQACQICITYICEEDSYLAGTLGLSADQTSGNYLNMQDSQGVLSSFPAPQAVQDNPAMPTSSGSEGNVKLCSLEEAQRIWKQKSAEIYPIMDKSSRTRLALIICNEEFDSIPRRTGAEVDITGMTMLLQNLGYSVDVKKNLTASDMTTELEAFAHRPEHKTSDSTFLVFMSHGIREGICGKKHSEQVPDILQLNAIFNMLNTKNCPSLKDKPKVIIIQACRGDSPGVVWFKDSVGVSGNLSLPTTEEFEDDAIKKAHIEKDFIAFCSSTPDNVSWRHPTMGSVFIGRLIEHMQEYACSCDVEEIFRKVRFSFEQPDGRAQMPTTERVTLTRCFYLFPGH [CASP1]	0.996	1.73	0.0768	51.5 °C	49.6 °C	-0.0916
MADLAECNIKVMCRFRPLNESEVNRGDKYIAKFQGEDTVVIASKPYAFDRVFQSSTSQEQVYNDCAKKIVKDVLEGYNGTIFAYGQTSSGKTHTMEGKLHDPEGMGIIPRIVQDIFNYIYSMDENLEFHIKVSYFEIYLDKIRDLLDVSKTNLSVHEDKNRVPYVKGCTERFVCSPDEVMDTIDEGKSNRHVAVTNMNEHSSRSHSIFLINVKQENTQTEQKLSGKLYLVDLAGSEKVSKTGAEGAVLDEAKNINKSLSALGNVISALAEGSTYVPYRDSKMTRILQDSLGGNCRTTIVICCSPSSYNESETKSTLLFGQRAKTIKNTVCVNVELTAEQWKKKYEKEKEKNKILRNTIQWLENELNRWRNGETVPIDEQFDKEKANLEAFTVDKDITLTNDKPATAIGVIGNFTDAERRKCEEEIAKLYKQLDDKDEEINQQSQLVEKLKTQMLDQEELLASTRRDQDNMQAELNRLQAENDASKEEVKEVLQALEELAVNYDQKSQEVEDKTKEYELLSDELNQKSATLASIDAELQKLKEMTNHQKKRAAEMMASLLKDLAEIGIAVGNNDVKQPEGTGMIDEEFTVARLYISKMKSEVKTMVKRCKQLESTQTESNKKMEENEKELAACQLRISQHEAKIKSLTEYLQNVEQKKRQLEESVDALSEELVQLRAQEKVHEMEKEHLNKVQTANEVKQAVEQQIQSHRETHQKQISSLRDEVEAKAKLITDLQDQNQKMMLEQERLRVEHEKLKATDQEKSRKLHELTVMQDRREQARQDLKGLEETVAKELQTLHNLRKLFVQDLATRVKKSAEIDSDDTGGSAAQKQKISFLENNLEQLTKVHKQLVRDNADLRCELPKLEKRLRATAERVKALESALKEAKENASRDRKRYQQEVDRIKEAVRSKNMARRGHSAQIAKPIRPGQHPAASPTHPSAIRGGGAFVQNSQPVAVRGGGGKQV [KIF5B]	1.12	0.152	0.108	51.5 °C	51.5 °C	-0.0355
MADLDSPPKLSGVQQPSEGVGGGRCSEISAELIRSLTELQELEAVYERLCGEEKVVERELDALLEQQNTIESKMVTLHRMGPNLQLIEGDAKQLAGMITFTCNLAENVSSKVRQLDLAKNRLYQAIQRADDILDLKFCMDGVQTALRSEDYEQAAAHTHRYLCLDKSVIELSRQGKEGSMIDANLKLLQEAEQRLKAIVAEKFAIATKEGDLPQVERFFKIFPLLGLHEEGLRKFSEYLCKQVASKAEENLLMVLGTDMSDRRAAVIFADTLTLLFEGIARIVETHQPIVETYYGPGRLYTLIKYLQVECDRQVEKVVDKFIKQRDYHQQFRHVQNNLMRNSTTEKIEPRELDPILTEVTLMNARSELYLRFLKKRISSDFEVGDSMASEEVKQEHQKCLDKLLNNCLLSCTMQELIGLYVTMEEYFMRETVNKAVALDTYEKGQLTSSMVDDVFYIVKKCIGRALSSSSIDCLCAMINLATTELESDFRDVLCNKLRMGFPATTFQDIQRGVTSAVNIMHSSLQQGKFDTKGIESTDEAKMSFLVTLNNVEVCSENISTLKKTLESDCTKLFSQGIGGEQAQAKFDSCLSDLAAVSNKFRDLLQEGLTELNSTAIKPQVQPWINSFFSVSHNIEEEEFNDYEANDPWVQQFILNLEQQMAEFKASLSPVIYDSLTGLMTSLVAVELEKVVLKSTFNRLGGLQFDKELRSLIAYLTTVTTWTIRDKFARLSQMATILNLERVTEILDYWGPNSGPLTWRLTPAEVRQVLALRIDFRSEDIKRLRL [COG4]	0.91	1.79	-0.0589	48.7 °C	49.6 °C	-0.175
MADLEAVLADVSYLMAMEKSKATPAARASKKILLPEPSIRSVMQKYLEDRGEVTFEKIFSQKLGYLLFRDFCLNHLEEARPLVEFYEEIKKYEKLETEEERVARSREIFDSYIMKELLACSHPFSKSATEHVQGHLGKKQVPPDLFQPYIEEICQNLRGDVFQKFIESDKFTRFCQWKNVELNIHLTMNDFSVHRIIGRGGFGEVYGCRKADTGKMYAMKCLDKKRIKMKQGETLALNERIMLSLVSTGDCPFIVCMSYAFHTPDKLSFILDLMNGGDLHYHLSQHGVFSEADMRFYAAEIILGLEHMHNRFVVYRDLKPANILLDEHGHVRISDLGLACDFSKKKPHASVGTHGYMAPEVLQKGVAYDSSADWFSLGCMLFKLLRGHSPFRQHKTKDKHEIDRMTLTMAVELPDSFSPELRSLLEGLLQRDVNRRLGCLGRGAQEVKESPFFRSLDWQMVFLQKYPPPLIPPRGEVNAADAFDIGSFDEEDTKGIKLLDSDQELYRNFPLTISERWQQEVAETVFDTINAETDRLEARKKAKNKQLGHEEDYALGKDCIMHGYMSKMGNPFLTQWQRRYFYLFPNRLEWRGEGEAPQSLLTMEEIQSVEETQIKERKCLLLKIRGGKQFILQCDSDPELVQWKKELRDAYREAQQLVQRVPKMKNKPRSPVVELSKVPLVQRGSANGL [ADRBK1]	1.35	0.436	-0.107	51.6 °C	51.4 °C	-0.0655
